Source: patent publication US6339070B1, “Gene construct encoding a heterologous prodrug-activating enzyme and a cell targeting moiety” (Zeneca Limited, priority 1997, dated 2002)
“Also recorded” adds a separate entry of the source.

Legend:
[1] = biological target: T1, human carcinoembryonic antigen (CEA) (Homo sapiens, UniProt P06731); assay: CEA-binding ELISA, anti-CPG2 reporter antibody; details: COS-7 transient expression supernatant
T1 sequence (P06731 35-676): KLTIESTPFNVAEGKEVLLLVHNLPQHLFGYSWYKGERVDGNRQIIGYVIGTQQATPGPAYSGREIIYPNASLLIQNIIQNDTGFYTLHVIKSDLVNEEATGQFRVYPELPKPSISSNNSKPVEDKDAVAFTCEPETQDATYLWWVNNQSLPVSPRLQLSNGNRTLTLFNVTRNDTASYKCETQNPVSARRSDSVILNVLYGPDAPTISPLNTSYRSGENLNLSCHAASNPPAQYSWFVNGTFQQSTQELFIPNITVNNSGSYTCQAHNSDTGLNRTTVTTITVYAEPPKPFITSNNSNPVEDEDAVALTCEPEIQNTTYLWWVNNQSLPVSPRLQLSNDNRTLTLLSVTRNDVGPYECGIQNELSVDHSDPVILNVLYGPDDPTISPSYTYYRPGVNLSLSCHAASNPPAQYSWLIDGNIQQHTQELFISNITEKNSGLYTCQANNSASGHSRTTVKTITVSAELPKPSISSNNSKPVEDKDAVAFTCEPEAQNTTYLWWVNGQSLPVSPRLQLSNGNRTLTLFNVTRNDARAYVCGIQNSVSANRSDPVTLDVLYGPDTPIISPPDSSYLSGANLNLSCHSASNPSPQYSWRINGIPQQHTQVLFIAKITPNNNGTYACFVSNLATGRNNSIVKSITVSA
Description: The CEA ELISA using an anti CPG2 reporter antibody was essentially as above but instead of HRPO-labelled goat anti-human kappa antibody an 1/1000 dil. of a rabbit anti-CPG2 polyclonal sera was added, in 1% BSA in PBS-TWEEN™ and incubated at room temperature on a rocking platform for at 2 hours. The plate was washed three times with PBS-TWEEN™. A 1/2000 dilution of a goat anti-rabbit HRPO labelled antibody (Sigma A-6154) was then added and incubated at room temperature on a rocking platform for 1 hour, the plate was washed three times with PBS-TWEEN™ and once with PBS. To detect binding add 100 μl per well developing solution (one capsule of phosphate-citrate buffer—Sigma P4922—dissolved in 100 ml H2O to which is added one 30 mg tablet o-phenylenediamine dihydrochloride—Sigma P8412) and incubated for up to 15 minutes. The reaction was stopped by adding 75 μl 2M H2SO4, and absorbance read at 490 nm.

[2] = Enzyme activity in tumour xenograft samples (methotrexate turnover, HPLC); format: in vivo, athymic nude mice; details: 20% recombinant: 80% parental LoVo tumours
Description: Recombinant LoVo fusion protein (A5B7-CPG2)2 expressing tumour cells or mixes of recombinant and parental LoVo cells were injected subcutaneously into athymic nude mice (10^7 tumour cells per mouse). The tumour growth rates for both 100% recombinant and 20%: 80% mixes of recombinant:parental LoVo cells were compared to those of parental cell only tumours.
To act as a standard for the assay, a CPG2 enzyme standard curve was prepared in 20% homogenate of normal tumour (parental cell tumour). Subsequent dilutions of samples were made in the same 20% homogenate of normal tumour.
Excised tumour tissue is removed from −80° storage (previously flash frozen in liquid nitrogen) and allowed to thaw. Any residual skin tissue was removed before the tumour was cut up in to small fragments with a scalpel. The tumour tissue was transferred to a preweighed tube and the weight of tumour tissue measured. PBS containing 0.2 mM ZnCl2 solution was added to each tumour sample to give a 20% (w/v) mix, homogenised and placed on ice. Dilutions of sample tumours (in 20% normal tumour homogenate) were prepared e.g. neat, 1/10, 1/20 and 1/40.
For the standard curve, dilutions of CPG2 enzyme were made to the following concentrations to a final volume of 400 μl. Similarly, 400 μl of each of the recombinant tumour sample dilutions were also prepared. After equilibration to 30°, 4 μl of 10 mM methotrexate (MTX) solution was added. The reaction was stopped after exactly 10 minutes by adding 600 μl ice cold methanol+0.2% TFA, centrifuged and the supematant collected. The substrate and product in the supernatant were then separated by HPLC (using a Cation Exchange Column, HICROM™ S5SCX-100 A, mobile phase=60% methanol, 40% 60 mM ammonium formate/0.1% TFA, detection 300 nm). To calculate enzyme activity in the tumour tissue, the standard curve was plotted as units of area of methotrexate metabolite (the standards are such that only 20-30% of the substrate is metabolised so ensuring this is not rate limiting). The test samples were analysed by comparing the unit area of metabolite against the standard curve and then multiplying by the dilution factor. Finally, making the working assumption that 1 ml=1 g the results were multiplied by 5 (as the samples were originally diluted to a 20% homogenate).

[3] = test system: LoVo, CEA bearing, tumour cells; assay: In vitro cell killing assay: cell-bound fusion protein plus PGP prodrug, SRB stain; format: cell-based; details: unbound protein washed off, PGP 1 hr, 4 days proliferation
Description: An in vitro cell killing assay was performed in which the (A5B7-CPG2 R6)2 fusion protein was compared to a “conventional” A5B7 F(ab′)2-CPG2 conjugate formed through linking A5B7 F(ab′)2 to CPG2 with a chemical heterobifunctional reagent. […] The cells were then washed to remove unbound protein material and subsequently resuspended in medium containing a CPG2 phenol prodrug (PGP, see Example 2 below) for a period of 1 hr, after which the cells were washed, resuspended in fresh media and left to proliferate for 4 days. Finally the cells were treated with SRB stain and their numbers determined.

[4] = test system: recombinant LoVo tumour cells; assay: Retention of secreted fusion protein on recombinant LoVo cells (cell based ELISA); details: CEA positive, without added anti-CEA antibody, listed as (A5B7-CPG2)2 fusion protein
Description: (§1) The vertical axis represents optical density readings measured at 490 nm and the horizontal axis the amount of added anti-CEA antibody (IIE6) measured in ng/ml of protein. […] Firstly, the cell lines were fixed and washed to remove the existing supernatant and any unbound material after which increasing concentrations of the anti-CEA antibody (IIE6) were added to the fixed cells. The assay was developed as described in the text to determine the level of retention of any secreted material and whether further added antibody would increase the signal. […] Since the recombinant Colo320DM are CEA negative no increase in signal due to anti-CEA antibody the results for these cells would be expected. In the case of the recombinant LoVo cells the addition signal due the amounts of antibody added in this assay may be swamped except at the highest dose due to the relative strength of the original signal.
(§2) LoVo colorectal tumour cells transfected with the (A5B7-CPG2)2 fusion protein gene have been shown both to secrete and to retain the fusion protein on their cell surface. […] The recombinant LoVo cells still gave such a strong initial signal that the added antibody made little difference to the overall signal obtained, which was considerably higher than any of the control experiments.

[5] = test system: recombinant Colo320DM (CEA negative); assay: Retention of secreted fusion protein on recombinant Colo320DM cells (cell based ELISA); details: listed as (A5B7-CPG2)2 fusion protein
Description: as §1, §2

B1: (A5B7 Fab-CPG2)2 fusion protein: chimaeric A5B7 anti-CEA Fab, heavy chain Fd linked via (G4S)3 linker to CPG2 R6, dimerised through CPG2 (antibody)
heavy: EVKLVESGGGLVQPGGSLRLSCATSGFTFTDYYMNWVRQPPGKALEWLGFIGNKANGYTTEYSASVKGRFTISRDKSQSILYLQMNTLRAEDSATYYCTRDRGLRFYFDYWGQGTTLTVSSASTKGPSVFPLAPCSRSTSESTAALGCLVKDYFPEPVTVSWNSGALTSGVHTFPAVLQSSGLYSLSSVVTVPSSNFGTQTYTCNVDHKPSNTKVDKTVGGGGSGGGGSGGGGSQKRDNVLFQAATDEQPAVIKTLEKLVNIETGTGDAEGIAAAGNFLEAELKNLGFTVTRSKSAGLVVGDNIVGKIKGRGGKNLLLMSHMDTVYLKGILAKAPFRVEGDKAYGPGIADDKGGNAVILHTLKLLKEYGVRDYGTITVLFNTDEEKGSFGSRDLIQEEAKLADYVLSFEPTSAGDEKLSLGTSGIAYVQVQITGKASHAGAAPELGVNALVEASDLVLRTMNIDDKAKNLRFQWTIAKAGQVSNIIPASATLNADVRYARNEDFDAAMKTLEERAQQKKLPEADVKVIVTRGRPAFNAGEGGKKLVDKAVAYYKEAGGTLGVEERTGGGTDAAYAALSGKPVIESLGLPGFGYHSDKAEYVDISAIPRRLYMAARLIMDLGAGK
light: QTVLSQSPAILSASPGEKVTMTCRASSSVTYIHWYQQKPGSSPKSWIYATSNLASGVPARFSGSGSGTSYSLTISRVEAEDAATYYCQHWSSKPPTFGGGTKLEIKRTVAAPSVFIFPPSDEQLKSGTASVVCLLNNFYPREAKVQWKVDNALQSGNSQESVTEQDSKDSTYSLSSTLTLSKADYEKHKVYACEVTHQGLSSPVTKSFNRGEC
[1]
  CEA binding detected with anti-CPG2 reporter antibody: exhibited clear CEA binding
[2]; day 5
  average enzyme activity in tumour: 0.26 U/g
  range of enzyme activity in tumour: 0.18-0.36 U/g
[2]; day 12
  average enzyme activity in tumour: 0.65 U/g
  range of enzyme activity in tumour: 0.19-1.1 U/g
[3]
  cell kill with PGP prodrug compared with equivalent levels of A5B7 F(ab)2-CPG2 conjugate: at least equivalent cell kill
[4]
  retention of expressed fusion protein on cell surface (OD 490 nm): had retained the expressed fusion protein; also recorded: very strong OD 490 nm reading
[5]
  retention of expressed fusion protein on cell surface (OD 490 nm): some retention of the expressed fusion protein (probably non-specific); also recorded: much weaker reading than the LoVo cells but the signal was higher than background
